Assay results published in patent US12065483.

B1: F2-02 (VHH)
VHH: QVQLVESGGGLVQAGGSLRLSCAASGRTFRSFAMGWFRQAPGKEREFVATISWWSNNTYYADSVKGRFTISRDIAKNTVYLQMNSLKPEDTAVYYCAADLGPWLTAGQYDYWGQGTQVTVSS
B2: F2-24 (VHH)
VHH: QVQLVESGGGLVQAGGSLRLSCASSGHTFNSYVMGWFRQAPGKEREFVAAIRPSGVSTYYADSVKGRFTISRDNAKNTVSLEMNSLKPEDTAVYYCAGDRDHSMMAVRRLSSYRQWGRGTQVTVSS
B3: F2-20 (VHH)
VHH: QVQLVESGGGLVQAGGSLRLSCAASGRTFSRYAMGWFRQAPGKEREFVARISWSGDITYYADSVKGRFTISRDNAKNTVYLQMNSLKPEDTAVYYCAADAILRTRPPYESDYWGQGTQVTVSS
B4: F1-04 (VHH)
VHH: QVQLVESGGGLVQVGGSLRLSCAASERPSSNYAMGWFRQAPGKEQEFVAAIYWSGGGTAYGDSVKGRFTISKDNAKNTVYLQMNDLKPEDTGMYYCTTDHYGSWSYEYGSWGQGTQVTVSS

Target: Influenza Hemagglutinin B (influenza B virus)
Test: ELISA on Influenza Hemagglutinin B (1 ug/mL); 293 supernatant diluted 1:1000

Which ELISA signal does the source give for B1 here?
Its ELISA signal is 0.61.

B2 was tested. Which ELISA signal did it give?
The ELISA signal was 1.63.

For B3, which ELISA signal is on record?
The ELISA signal was 1.2.

B4 was tested. Which ELISA signal did it give?
The ELISA signal was 0.738.

Target: Influenza Hemagglutinin A (influenza A virus)
Test: ELISA on Influenza Hemagglutinin A (1 ug/mL); 293 supernatant diluted 1:10000

With B1 as the binder, how does the ELISA signal read?
The ELISA signal was 0.405.

For B2, which ELISA signal is on record?
Its ELISA signal is 0.15.

With B3 as the binder, how does the ELISA signal read?
Its ELISA signal is 0.269.

B4 was tested. Which ELISA signal did it give?
Its ELISA signal is 0.058.

Target: Influenza Hemagglutinin B (influenza B virus)
Test: ELISA on Influenza Hemagglutinin B (1 ug/mL); 293 supernatant diluted 1:10000

How did the ELISA signal turn out when B1 was run?
Its ELISA signal is 0.266.

B2 was tested. Which ELISA signal did it give?
Its ELISA signal is 1.45.

B3 was tested. Which ELISA signal did it give?
The ELISA signal was 0.805.

For B4, which ELISA signal is on record?
Its ELISA signal is 0.205.

Target: Influenza Hemagglutinin A (influenza A virus)
Test: ELISA on Influenza Hemagglutinin A (1 ug/mL); 293 supernatant diluted 1:1000

How did the ELISA signal turn out when B1 was run?
Its ELISA signal is 0.73.

With B2 as the binder, how does the ELISA signal read?
The ELISA signal was 0.279.

With B3 as the binder, how does the ELISA signal read?
The ELISA signal was 0.442.

How did the ELISA signal turn out when B4 was run?
Its ELISA signal is 0.366.

Target: Influenza Hemagglutinin B (influenza B virus)
Test: ELISA on Influenza Hemagglutinin B (1 ug/mL); 293 supernatant diluted 1:100

B1 was tested. Which ELISA signal did it give?
The ELISA signal was 0.863.

For B2, which ELISA signal is on record?
Its ELISA signal is 1.85.

B3 was tested. Which ELISA signal did it give?
Its ELISA signal is 1.52.

B4 was tested. Which ELISA signal did it give?
The ELISA signal was 1.63.

Target: Influenza Hemagglutinin A (influenza A virus)
Test: ELISA on Influenza Hemagglutinin A (1 ug/mL); 293 supernatant diluted 1:100

How did the ELISA signal turn out when B1 was run?
The ELISA signal was 1.09.

For B2, which ELISA signal is on record?
Its ELISA signal is 0.427.

B3 was tested. Which ELISA signal did it give?
The ELISA signal was 0.629.

With B4 as the binder, how does the ELISA signal read?
The ELISA signal was 2.

Target: Influenza Hemagglutinin A (influenza A virus)
Test: ELISA on Influenza Hemagglutinin A (1 ug/mL); 293 supernatant diluted 1:10

B1 was tested. Which ELISA signal did it give?
The ELISA signal was 1.21.

B2 was tested. Which ELISA signal did it give?
Its ELISA signal is 0.444.

Which ELISA signal does the source give for B3 here?
The ELISA signal was 0.884.

Which ELISA signal does the source give for B4 here?
The ELISA signal was 1.76.

Target: Influenza Hemagglutinin B (influenza B virus)
Test: ELISA on Influenza Hemagglutinin B (1 ug/mL); 293 supernatant diluted 1:10

How did the ELISA signal turn out when B1 was run?
Its ELISA signal is 0.826.

B2 was tested. Which ELISA signal did it give?
The ELISA signal was 1.69.

Which ELISA signal does the source give for B3 here?
The ELISA signal was 1.58.

Which ELISA signal does the source give for B4 here?
The ELISA signal was 1.47.
